Assay results reported in the supplement of paper PMC10567573.

B1: MMP1 (parent)
chain: FVRGDHRDNSPFDGPGGNLAHAFQ

Variants of: B1
Assay: protein stability index of a GFP-peptide fusion (GPS, HEK-293T) (PSI 1-6); higher = more stable
Conditions: c terminus: a fixed tail appended
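Note: lentivirally expressed fusions sorted by FACS into six bins by GFP to DsRed ratio, PSI derived from sequencing read proportions per bin multiplied by bin number.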

Protein stability index, by site and new letter:
P15: W 1.87; Q 1.64; L 1.95; Y 2.52; I 1.72; A 1.53; N 2.11; R 3.76; F 2.1; G 1.61; K 1.94; H 1.79; E 2.37; D 2.97; S 4.22; M 2.72; T 1.38
A20: T 3.31; M 1.88; P 1.74; N 1.76; H 1.44; S 1.88; E 1.89; G 1.92; D 1.74; K 2.56; V 1.99; Q 1.69; R 1.43; C 2.69; L 2.49; F 2.66; I 2.04; Y 1.29
P11: Q 2.02; F 1.83; K 1.78; W 1.84; N 2.13; S 2.91; I 1.7; R 2.4; H 1.5; Y 2.04; C 2.61; E 2.06; A 1.81; V 2.06; L 1.34; M 1.6; G 2.89; D 2.79; T 1.8
D8: A 1.63; L 2.25; P 2.12; E 1.31; Q 3.21; R 1.62; M 3.46; N 2.68; H 2.29; G 1.84; K 2.78; T 2.28; C 3.26; S 2.08; W 3.09; F 4.46; V 2.25; Y 3.24; I 1.87
G14: E 2.06; T 1.76; L 2.44; A 2.12; I 2.51; D 2.25; C 2.99; S 1.89; F 2.93; R 1.6; P 1.91; W 1.69; Y 2.2; Q 3.14; V 3.45; H 1.39; K 1.77; N 1.7
L19: E 1.99; Q 1.51; Y 1.64; H 1.39; T 2.08; K 2.25; C 1.96; N 1.73; D 2.35; P 1.49; I 1.95; G 2.63; R 1.66; M 2.1; V 3.29; A 1.38; S 1.15; F 2
D13: G 2.6; V 3.19; K 1.59; M 1.03; A 1.37; R 1.48; S 2.56; Y 3.03; E 2.57; T 2.27; N 1.77; P 3.31; I 1.63; L 1.47; Q 2.21; H 3.02; C 2.36
F12: G 2.24; Y 2.89; P 2.31; C 2; Q 1.8; D 2.3; E 1.82; W 3.55; T 2.39; V 1.94; H 1.99; N 1.83; K 2.27; L 1.72; I 1.72; A 1.91; R 1.84; S 1.95; M 2.08
D5: I 1.66; V 1.81; E 1.5; P 2.27; T 3.73; S 2.75; N 2.52; W 2.86; G 1.34; A 2.15; R 3.46; K 3.58; F 2.45
R7: P 2.8; W 2.33; E 1.91; M 1.78; F 2.83; S 1.37; H 2.91; D 1.56; L 3.54; Y 2.18; N 1.7; V 2.04; I 2.77; C 1.82; A 2.02; K 1.68; Q 2.55; G 1.26; T 2.18
N18: Q 2.27; V 2.14; K 2.5; S 2.18; H 1.88; C 1.5; M 1.99; G 1.99; D 1.5; Y 1.7; I 1.01; T 1.92; P 2.17; R 3.01; L 3.23; A 2.74; E 2.15; F 4.34
V2: R 3.48; N 3.53; Y 3.15; S 2.76; W 2.25; P 2.85; Q 2.75; T 3.07
G4: F 2.06; Q 2.42; E 1.76; R 1.56; T 2.52; C 2.67; S 2.41; L 1.68; P 1.73; Y 2.09; V 1.94; N 2.04; I 1.64; W 1.94; H 2.26; D 3.02; K 1.57; A 2
S10: K 2.63; L 1.83; N 1.38; Q 1.6; E 1.53; H 1.51; R 2.03; C 1.83; Y 1.71; G 1.3; T 2.13; M 2.11; I 1.71; D 1.35; V 1.42; P 2.84; A 2.32; F 2.42
R3: S 1.99; Q 1.71; V 2.37; W 1.86; P 1.44; L 2.13; M 1.57; T 2.13; Y 1.93; F 1.69; E 2.73; A 1.63; N 2.34; D 1.73; C 3.82; H 1.85; K 1.45; G 1.3; I 2.11
H21: E 1.94; C 2.53; A 2.77; D 2.15
H6: D 2.5; S 1.85; G 2.26; I 1.55; F 3.13; L 2.64; P 1.48; M 2.16; K 2.57; C 2.02; A 2.42; E 1.76; T 1.58; R 1.99; N 1.33; V 2.48; Q 1.42
G17: R 1.79; L 2.29; F 2.18; A 1.58; M 3.38; T 2.05; E 1.6; V 2.43; D 1.82; S 2.3; N 2.48; I 2.43; H 1.9; Q 1.95; W 2.48; P 1.37; K 1.92; C 2.62; Y 3.31
G16: S 2.23; E 2.54; R 2.45; M 1.79; V 1.83; Y 2.73; Q 2.75; H 1.87; P 1.75; D 2.29; W 3.43; C 2.63; I 2.4; L 2.81; N 1.69; T 2.32; A 1.34; K 1.52
N9: T 2.13; W 2.12; P 2.4; E 2.15; Y 2.58; H 4.14; K 2.47; A 2.53; Q 2.07; M 2.27; L 2.31; S 2.41; F 3.83; V 1.87; C 1.93; D 1.8; I 3.22; G 1.38
